Test: yeast display, Sf9 membrane polyspecificity reagent, FACS + sequencing; frameworks hold sequencing errors
Method in brief: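 Galactose-induced (36–48 hours) yeast carrying a synthetic nanobody display library were exposed to 10% biotinylated, detergent-solubilized Sf9 membrane reagent at 4 °C for 1 hour. FACS followed streptavidin microbead enrichment, using low and high (top ~1%) gates for expression (anti-HA) and reagent binding (streptavidin). Colony PCR, MiSeq 2 × 250 sequencing and CDR-length filtering followed. Labels for polyreactivity reflect the gate of origin.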

| Sequence | polyreactivity (PSR sort gate) |
| --- | --- |
| QVQHVESGGGLGQAGGSLRLSCAASGRIFDEYALGSYRQAPGKERELVAAISLIGASTYYADSVKGRFTISRDTAKNTVYLQMNSQHPEDTAVYYCAAEYAFVVPGYYREVYYWGEGTQVTVSS | low polyreactivity |
| QVQLVESGGGLVQAGGSLRLSCAASGFTFAYYAMGWYRLAPGKERELVAAINRSGGSTYYADSVKGRFTISRDNAKNTVYIEMNSLKPEDTAVYYCAAARPSLRDGVAHYYWGQGTQVTVSS | high polyreactivity |
| QVQLVESGGGLVQAGGSLRLSCAASGITFNYAMGWYRQAPGKERELVAAISRRGGSTYYADSVKGRFTISRDNAKNTVYLQMNSLKPEDTAVYYCNTTVWGSYYYWGQGTQVTVSS | high polyreactivity |
| QVQLVESGGGLVQAGGSLRLSCAASGLIFRYYAMGWYRQAPGKERELVATIRGGGSTYYADSVKGRFTISRDNAKNTVYLQMNSLKPEDTAVYYCAADPYSYGARGARGDYWGQGTQVTVSS | low polyreactivity |
| QVHLVESGAGLVQAGGILRLSCAASGRIFAHYALGWYRQAPGKERELVAAISRGGSTKYADSVKGRFTISRDHAKNTVYFQMNSLKPEDTAVYYCARQLWGSPYGAYYAGDYWGQGTQVTVSS | low polyreactivity |
| QVQLVESGGGLVQAGGSLRLSCAASGRNIYSNAMGWYRQAPGKERELVAAIRWRDGSTYYADSVKGRFTISRDNAKNTVFLQMNSLKPVDTAVYYCAAVYWGEEYEYWGQGTQVTVSS | low polyreactivity |
| QVQLVESGGGLVQAGGSLRLSCAASGSTLLYYAKGWYRQAPGKERELVAAISWRGGSTYYADSVKGRFTISRDNAKYTVYLQMNSLKPEDTAVYYCAARSLRLVGPYYYWGQGTQVTVSS | high polyreactivity |
| QVQLVDSGGGLVQAGGSLRLRCADSGSIFRDNAMGWYRQAPGKERELVADINYRDGDTFYADSVKGRFTISRDNAKNTVYLLMNSLKPEDNAVYYCAAEWDYPWWRIVAVYGYEYWGQGTQVTVSS | low polyreactivity |
| QVQLVESGGGLVQAGGSLRLSCAASGRTFYDNTMGWYRQAPWKERELVAAISRGGSTYADSVKGRFTISRDNAKNTVYLQMNSLKPEDTAVYYCNKRSITTEYGYWGQGTQVTVSS | low polyreactivity |
| QVQLVESGGGLVQAGGSLRLSCAASGSIFYSNAMGWYRQAPGKEREFVATITQTGSSTYDADSVKGRFTISRDNAKNTVYLQMNSLKPEVTAVYYCAVDWILYEYEDDFWYRYDYWGQGTQVTVSS | low polyreactivity |
| QVQLVESGGGLVQAGGSLRLSCAASGSIFGFYAMGWDRQAPGKERELVAAIRWRDGRTYYADSVKGRFTISRDNAKNTVYLQMNSLKPEDTAVYYCAAGTPWAYDYWGQGTQVTVSS | high polyreactivity |
| QVQVVESGGGFVQAGGSLRLSCAASGRTFRYYAMGWYRQAPGKERELVAVISSSDSTNYADSVKGRFTISRDNAKNTVNLQMNSLKPEDTGVYYCAKVYRVIRPYGYWGQGTQVTVSS | high polyreactivity |
| QVQLVESGGGLVQAGGSLRLSCAASGRIFPKYAMGWYRQAPGKERELVARISVRGGRTYYADSVKGRFTISRDNAKNTVYLQMNSLKPEDTAVYYCAAYTRPAYDYWGQGTQVTVSS | high polyreactivity |
| QLQIVESGGGLVQAGGSLRISCAASVFTFCKYAMGWYRPAPGKERELVAAISVSGGRTYSADSVKGRFTISRDNAKNTVYLQMNSLKPEDTEVYYCNATQWRPYVGGEYWGQGTQVTVSS | high polyreactivity |
| QVQLVESGGGLVQAGGSLRLSCAASGSIIGRYTMGWYRQAPGKERELVAAISRSGGSTYYADSVKGRFTISRDNAKNTVYLQMNSLKPEDTAVYYCAKRTYTPRGERLYSSYDYWGQGTQVTVSS | high polyreactivity |
| QFQLVESGGGLVQAGGSLRLSCAASGRTFRGYAMGWYRQAPGKERELVAAITWRGGSTYYADSVKGRFTISRDNAKNTVYLQMNSLKPEDTAVYYCNTLVWSYLGGYYSRFDYWGQGTQVTVSS | high polyreactivity |
| QVQLVESGGGLVQAGGSLRLSCAASGRTFVYYAMGWYRQAPGKERELVATITRGGRTNYADSVKGRFTISRDNAKNTVYLQMNSLKPEDTAVYYCNARYSWWRSRVGSSHRPDGYWGQGTQVTVSS | high polyreactivity |
| QVQLVESGGGLVQAGGSLRLSCAASGFIFGRYAMGWYRQAPGKERELVAAITYSSGSTYYADSVKGRFTISRDNAKNTVYLQMNSLKPEDTAVYYCNAEFWYETLYEYDYWGQGTQVTVSS | high polyreactivity |
| QVQLVESGGGLVQAGGSLRLSCAASGYTFLYYAMGWYRQAPGKEREFVAAISRSGGSTYYADSVKGRFTISRDNAKNTVYLQMISLKPEDTAVYYCAARFRYQHQRGDYWGQGTQVTVSS | high polyreactivity |
| QVQLVESCGGLVQAGGSLRLSCAASGRILSSYAMGGNRQAPGKERELVADITQRGGTTYYADSVKGRFSISRDNAKNTVYLQMNRLKPEDTAVYYCNAKSYRSYGGRGGVEYDYCGQGTQVTVSS | low polyreactivity |
| QVQLVESGGGLVQAGGSLRLSCAASGRNFSYYAMGWYRQAPGKERELVAAISWNGGSTYYADSVKGRFTISRDNAKNTVYLQMNSLKPEDTAVYYCAVLPHYEYDYWGQGTQVTVSS | high polyreactivity |
| QVQLVESGGGLVQAGGRLRLSCAASGNTFGPYDMGWYRQAPGKERELVAGITSGGSTYYADSVKGRFTISRDNAKITVYLQMNSLKPEDTAVYYCAADYFLWVYWYDYWGQGTQVTVSS | high polyreactivity |

| Sequence | polyreactivity (PSR sort gate) |
| --- | --- |
| QVQLVESGGGLVQAGGSLRLSCAASGRTFNYYGMGWYRQAPGKERELVAAISRGGTTNYADSVKGRFTISRDNAKNTVYLQMNSLKPEDTAVYYCAKGRSHWHSYQYVRPNYDYWGQGTQVTVSS | low polyreactivity |
| QVQLVESGGGLVQAGGSLRLSCAASGGTFVFYAMGWYRQAPGKERELVAAISSAGRTYYADSVKGRFTISRDNAKNTVYFQMNSLKPEDNAVYYCAAVSSQYDGRYYYWGQGTQVTVSS | high polyreactivity |
| QVQLVESGGGLVQAGGSLRLSCAASGSTFVRYPMGWYRPAPGKERELVAGISRVGNTYYADSVKGRFTISRDNAKNTVYLQMNSLKPEDTAVYYCAARSSRWDGYDYWGQGTQVTVSS | high polyreactivity |
| QVQLVESGGGLVQAGGSHRLSCAASGSIFKRNAMRSYRQAPGKERELVAAISRSGGSTYYADSVKGRFTISRDFAKNTVYLQMNSLKPEDTAVYYCDARRKLGYGSENDYWGQGTQVTVSS | high polyreactivity |
| QVQLVESGGGLVQAGGTLRLSCAASGRTLHGYAMGWYRQAPGKERELVASITWSGASTYYADSVKGRFTISRDNAKNTVYLQMNSLKPEDTAVYYCAADRSRYVRRRYGYWGQGTQVTVSS | high polyreactivity |
| QGQLVESGGGLVQAGGSLRLSCAASGRIFYQNDMGWYIQAPGKERELVADIASGGSTYYADSVKGRFTISRDNAKNTVYLQMNSLKPEDTAVYYCASAVLYGDGWYYYWGQGTQVTVSS | low polyreactivity |
| QVQLVESGGGLVQAGGSLRLSCAASGRTFIANAMGWYRQAPGKERELVAVITLNGGSTYYADSVKGRFTISRDNAKNTVYLQMNSLKPEDSAVYYCDAGRYYNLRATHGYWRQGTQVTVSS | low polyreactivity |
| QVQLVESGGGLVQAGGSLRLSCAASGFTFWRNTMGWYRQEPGKERELVAGISGSGGSTYYADSVKGRFTSSRDNAKNTVYLQMNSLKPEDTAVYYCAKEPNVGTWRRWRYNYCGQGTQVTVSS | high polyreactivity |
| QVQLVESGGGLVQAGGSLRLSCAASGRTFIPYAMGWYRQAPGKERELVAAIRTTGGSTNYADSVKGRFTISRDNAKNTVYLQMNSLKPEDTAVYYCAATSRQRPYDYWGQGTQVTVSS | high polyreactivity |
| QVQLVESGGGLVQAGGSLRISCAASGRTFWKYVRGWYRQAPGKERELVAVISRPAGSTYYADSVKGRFTISRDNAKNTVYLQMNSLKPEDTAVYYCAKRPKNKPVLGDYDHWGQGTQVTVSS | low polyreactivity |
| QVQLVESGGGLVQAGGSLRLSCAASGTTFTRYAMGWYRQAPGKERELVAAISRTGGSRTYYADSVKGRFTISRDNAKNTVYLHMNSLKPEDTAVYYCAKGYWRYLGFLYFFPARDYWGQGTQVTVSS | high polyreactivity |
| QVQLVESGGGLVQAGGSLRLSCAASGSTFGGYAMGWYRQAPGKERELVASISGGTRTNYADSVKGRFTISRDNAKNSVYLQMNSLKPEDTAVYYCAAEVGLPTWYTLPVDDYDYWGQGTQVTVSS | low polyreactivity |
| QVQLVESGGGLVQAGGSLRLSCAASGNTFATYALGWYRQAPGKERELVAAITWSGGSTYYADSVKGRFTISRDNAKNTVYLQMNSLKPEDTAVYYCAADYLYYAIPAYYWDTGYDYWGQGTQVTVSS | low polyreactivity |
| PVQLVESGGGLVQAGGSLRLSCAASGRTFYKYAMGWYRQAPGKERELVAAISKSGGRTYYADSVKGRFTISRDNAKNTVYLQMNSLKPEDTAVYYCAAEPFIPDQSRYYYWGQGTQVTVSS | high polyreactivity |
| QVQLVESGGGLVQAGGSLRLSCAASGRIFIEYAMGWYRQAPGKERELVATINSSGGRTYYADSVKGRFTISRDNAKNTVYLQMNSLKPEDTAVYYCAARGSYRGPYNVEYDSWGQGTQVTVSS | low polyreactivity |
| QVQLVESGGGLVQAGGSLRLSCAASGITFGVNTMGWYRQAPGKERELVAAITWRGGSTYYADSVKGRFTISRDNAKNTVYLQMNSLKPEDTAVYYCAAPYDGPVLTVGYDYWGQGTQVTVSS | low polyreactivity |
| QVQLVESGGGLVQAGGSLRLSCAASGNTFYSYAMGWYRQAPGKERELVAAITWGGRTKYADSVKGRFTISRDNAKNTVYLQMNSLKPEDTAVDYCAARLYHGKTKYDYWGQGTQVTVSS | high polyreactivity |
| QVQLVESGGGLVQAGGSLRLSCAASGSTFTWNVMGWYRQAPAKERELVASITSGDSTYADSVKGRFTISRDNAKNTVYLQMNSLKPEDTAVYYCNVGYDQEKYGYWGQGTQVTVSS | low polyreactivity |
| QVQLVESGGGLVQAGGSLRLSCAASGRTKQRKAMGWYRQAPGKERELVAAISSSGGSTYYADSVKGRFTISRDNAKNTVYLQMNSLKPEDTAVYYCAADGQFDDYYSLPFYYDYWGQGTHVTVSS | high polyreactivity |
| QVQLVESGGGLVQAGGSLRLSSAASGSTLTFNAMGWYRQAPGKERELVAAISWSDTDTYYADSVKGRFTISRDNAKNTVYLQMNSLKPEDTAVYYCAATVSAYEMDYWGQGTQVTVSS | low polyreactivity |
| QVQLVESGGGLVQAGGSLRLSCAASGRNFVTNAMGWYRQAPGKERELVAAITRGGNTNYADSVKGRFTISRDNAKNTVYLQMNSLKPEDSAVYYCAADTSYYYVYGYFPGYYYWGQGTQVTVSS | low polyreactivity |
